In patent US20260347498 (published 2026):

Experiments:
[1] = target: T1, human EpCAM extracellular domain (human); assay: BLI, 30C, monovalent
T1 chain: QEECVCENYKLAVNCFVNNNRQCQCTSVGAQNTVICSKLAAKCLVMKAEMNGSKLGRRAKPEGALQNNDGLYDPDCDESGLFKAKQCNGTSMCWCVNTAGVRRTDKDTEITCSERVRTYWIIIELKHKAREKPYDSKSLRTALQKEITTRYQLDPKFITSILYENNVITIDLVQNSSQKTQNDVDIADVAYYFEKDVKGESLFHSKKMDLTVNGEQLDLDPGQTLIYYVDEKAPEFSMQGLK

FcγRIIa H131 = target: T2, FcγRIIa H131 (human, UniProt P12318); assay: SPR
T2 chain: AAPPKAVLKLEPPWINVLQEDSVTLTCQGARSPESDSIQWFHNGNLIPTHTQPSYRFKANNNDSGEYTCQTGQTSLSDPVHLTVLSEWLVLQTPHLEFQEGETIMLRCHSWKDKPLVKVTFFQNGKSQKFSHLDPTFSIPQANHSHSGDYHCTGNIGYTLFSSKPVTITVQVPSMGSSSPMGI

FcγRIIb = target: T3, FcγRIIb (human, UniProt P31994); assay: SPR
T3 chain: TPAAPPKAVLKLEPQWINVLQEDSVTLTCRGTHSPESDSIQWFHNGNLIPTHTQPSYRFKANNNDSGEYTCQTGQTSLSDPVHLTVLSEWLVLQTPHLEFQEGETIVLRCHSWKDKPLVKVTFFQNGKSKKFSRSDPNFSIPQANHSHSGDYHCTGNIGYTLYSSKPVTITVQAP

FcγRIa = target: T4, FcγRIa (human, UniProt P12314); assay: SPR
T4 chain: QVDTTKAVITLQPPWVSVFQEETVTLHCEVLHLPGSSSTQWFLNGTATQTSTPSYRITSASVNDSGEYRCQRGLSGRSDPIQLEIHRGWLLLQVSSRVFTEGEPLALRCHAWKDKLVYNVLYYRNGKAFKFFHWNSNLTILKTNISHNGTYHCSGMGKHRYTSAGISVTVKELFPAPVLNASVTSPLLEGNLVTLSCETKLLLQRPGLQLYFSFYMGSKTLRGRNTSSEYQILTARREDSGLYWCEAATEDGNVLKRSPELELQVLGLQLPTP

FcγRIIIa F158 = FcγRIIIa F158 (human, UniProt P08637); assay: SPR
Sequence of FcγRIIIa F158 (P08637 17-208): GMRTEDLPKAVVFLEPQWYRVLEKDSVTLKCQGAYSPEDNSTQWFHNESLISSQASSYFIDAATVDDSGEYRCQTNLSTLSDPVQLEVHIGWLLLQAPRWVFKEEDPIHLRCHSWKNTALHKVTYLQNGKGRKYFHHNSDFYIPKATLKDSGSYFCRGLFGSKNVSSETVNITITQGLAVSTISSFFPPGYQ

FcγRIIIa V158 = FcγRIIIa V158 (human, UniProt P08637); assay: SPR
Sequence of FcγRIIIa V158 (P08637 17-208 F176V): as the sequence (P08637 17-208) above, with F160V counted along it

human FcRn [2] = target: T5, human FcRn (human, UniProt P55899); assay: SPR, pH 6.0
T5 sequence (P55899 24-297, chain 1 of 2): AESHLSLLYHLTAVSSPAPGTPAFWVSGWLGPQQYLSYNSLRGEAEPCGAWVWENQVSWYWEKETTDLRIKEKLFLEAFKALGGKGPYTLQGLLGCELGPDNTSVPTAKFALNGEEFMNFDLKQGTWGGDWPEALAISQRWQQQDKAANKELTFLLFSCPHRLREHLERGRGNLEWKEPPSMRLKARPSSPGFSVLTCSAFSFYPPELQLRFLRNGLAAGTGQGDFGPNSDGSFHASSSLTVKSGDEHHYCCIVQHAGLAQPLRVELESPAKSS
T5 sequence (chain, as listed by the source, chain 2 of 2): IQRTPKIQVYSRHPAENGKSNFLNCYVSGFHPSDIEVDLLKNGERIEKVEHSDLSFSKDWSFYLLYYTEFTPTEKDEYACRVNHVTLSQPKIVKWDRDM

FcγRIIa R131 = target: T6, FcγRIIa R131 (human, UniProt P12318); assay: SPR
T6 chain: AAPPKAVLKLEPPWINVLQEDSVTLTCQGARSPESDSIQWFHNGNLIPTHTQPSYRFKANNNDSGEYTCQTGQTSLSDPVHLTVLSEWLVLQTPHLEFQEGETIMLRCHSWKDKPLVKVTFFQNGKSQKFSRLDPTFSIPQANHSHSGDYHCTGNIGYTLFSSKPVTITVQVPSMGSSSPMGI

human FcRn [3] = target: T5, human FcRn; assay: SPR, pH 7.4
[4] = target: T7, human EpCAM on DiFi cells (human); assay: FACS, DiFi cells
T7 chain: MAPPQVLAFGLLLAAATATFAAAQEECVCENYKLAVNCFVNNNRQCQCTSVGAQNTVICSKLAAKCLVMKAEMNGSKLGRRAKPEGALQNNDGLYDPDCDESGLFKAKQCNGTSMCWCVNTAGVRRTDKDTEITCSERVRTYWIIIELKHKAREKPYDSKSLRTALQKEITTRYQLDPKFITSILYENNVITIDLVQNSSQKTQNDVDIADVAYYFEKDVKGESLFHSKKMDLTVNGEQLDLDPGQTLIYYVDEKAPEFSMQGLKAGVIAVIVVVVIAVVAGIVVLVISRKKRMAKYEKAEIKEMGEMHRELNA

Binder	Kd [1]	binding result (FcγRIa)	binding result (FcγRIIIa F158)	binding result (FcγRIIIa V158)	Kd (human FcRn [2])	binding result (human FcRn [3])	binding result [4]	other results
BisG1-b12-FEAL/EpCAM-A37-FEAR (EpCAM arm) (antibody, V domains shown) VH: QVQLVQSGAEVKKPGSSVRVSCKASGGTFSSYAISWVRQAPGQGLEWMGGIIPIFGTANYAQKFQGRVTITADESTSTAYMELSSLRSEDTAVYYCARDPFLHYWGQGTLVTVSS VL: EIELTQSPGTLSLSPGERATLSCRASQTISNNYLAWYQQKRGQAPRLLIYAASSRATGIPDRFSGTGSGTDFTLTISRLEPEDFAVYYCAQGELYPRQFGGGTKLEIK	20 nM	–	–	–	–	–	–	–
IgG1-CD137-009-HC7LC2-FEAR (antibody) chain 1: EVQLVESGGGLVQPGRSLRLSCTASGFSLNDYWMSWVRQAPGKGLEWVGYIDVGGSLYYAASVKGRFTISRDDSKSIAYLQMNSLKTEDTAVYYCARGGLTYGFDLWGQGTLVTVSSASTKGPSVFPLAPSSKSTSGGTAALGCLVKDYFPEPVTVSWNSGALTSGVHTFPAVLQSSGLYSLSSVVTVPSSSLGTQTYICNVNHKPSNTKVDKRVEPKSCDKTHTCPPCPAPEFEGGPSVFLFPPKPKDTLMISRTPEVTCVVVAVSHEDPEVKFNWYVDGVEVHNAKTKPREEQYNSTYRVVSVLTVLHQDWLNGKEYKCKVSNKALPAPIEKTISKAKGQPREPQVYTLPPSREEMTKNQVSLTCLVKGFYPSDIAVEWESNGQPENNYKTTPPVLDSDGSFFLYSRLTVDKSRWQQGNVFSCSVMHEALHNHYTQKSLSLSPG chain 2: DIVMTQSPSSLSASVGDRVTITCQASEDISSYLAWYQQKPGKAPKRLIYGASDLASGVPSRFSASGSGTDYTFTISSLQPEDIATYYCHYYATISGLGVAFGGGTKVEIKRTVAAPSVFIFPPSDEQLKSGTASVVCLLNNFYPREAKVQWKVDNALQSGNSQESVTEQDSKDSTYSLSSTLTLSKADYEKHKVYACEVTHQGLSSPVTKSFNRGEC	–	no binding	no binding	no binding	375 nM	no binding	–	binding result (FcγRIIa H131): no binding; binding result (FcγRIIb): no binding; binding result (FcγRIIa R131): no binding
bsIgG1-b12-FERL/CD137-009-HC7LC2-FEAR (antibody) chain 1: QVQLVQSGAEVKKPGASVKVSCQASGYRFSNFVIHWVRQAPGQRFEWMGWINPYNGNKEFSAKFQDRVTFTADTSANTAYMELRSLRSADTAVYYCARVGPYSWDDSPQDNYYMDVWGKGTTVIVSSASTKGPSVFPLAPSSKSTSGGTAALGCLVKDYFPEPVTVSWNSGALTSGVHTFPAVLQSSGLYSLSSVVTVPSSSLGTQTYICNVNHKPSNTKVDKRVEPKSCDKTHTCPPCPAPEFERGPSVFLFPPKPKDTLMISRTPEVTCVVVDVSHEDPEVKFNWYVDGVEVHNAKTKPREEQYNSTYRVVSVLTVLHQDWLNGKEYKCKVSNKALPAPIEKTISKAKGQPREPQVYTLPPSREEMTKNQVSLTCLVKGFYPSDIAVEWESNGQPENNYKTTPPVLDSDGSFLLYSKLTVDKSRWQQGNVFSCSVMHEALHNHYTQKSLSLSPG chain 2: EIVLTQSPGTLSLSPGERATFSCRSSHSIRSRRVAWYQHKPGQAPRLVIHGVSNRASGISDRFSGSGSGTDFTLTITRVEPEDFALYYCQVYGASSYTFGQGTKLERKRTVAAPSVFIFPPSDEQLKSGTASVVCLLNNFYPREAKVQWKVDNALQSGNSQESVTEQDSKDSTYSLSSTLTLSKADYEKHKVYACEVTHQGLSSPVTKSFNRGEC chain 3: EVQLVESGGGLVQPGRSLRLSCTASGFSLNDYWMSWVRQAPGKGLEWVGYIDVGGSLYYAASVKGRFTISRDDSKSIAYLQMNSLKTEDTAVYYCARGGLTYGFDLWGQGTLVTVSSASTKGPSVFPLAPSSKSTSGGTAALGCLVKDYFPEPVTVSWNSGALTSGVHTFPAVLQSSGLYSLSSVVTVPSSSLGTQTYICNVNHKPSNTKVDKRVEPKSCDKTHTCPPCPAPEFEGGPSVFLFPPKPKDTLMISRTPEVTCVVVAVSHEDPEVKFNWYVDGVEVHNAKTKPREEQYNSTYRVVSVLTVLHQDWLNGKEYKCKVSNKALPAPIEKTISKAKGQPREPQVYTLPPSREEMTKNQVSLTCLVKGFYPSDIAVEWESNGQPENNYKTTPPVLDSDGSFFLYSRLTVDKSRWQQGNVFSCSVMHEALHNHYTQKSLSLSPG chain 4: DIVMTQSPSSLSASVGDRVTITCQASEDISSYLAWYQQKPGKAPKRLIYGASDLASGVPSRFSASGSGTDYTFTISSLQPEDIATYYCHYYATISGLGVAFGGGTKVEIKRTVAAPSVFIFPPSDEQLKSGTASVVCLLNNFYPREAKVQWKVDNALQSGNSQESVTEQDSKDSTYSLSSTLTLSKADYEKHKVYACEVTHQGLSSPVTKSFNRGEC	–	–	–	–	–	–	no binding	–
bsIgG1-b12-FERL/b12-FEAR (antibody) chain 1: QVQLVQSGAEVKKPGASVKVSCQASGYRFSNFVIHWVRQAPGQRFEWMGWINPYNGNKEFSAKFQDRVTFTADTSANTAYMELRSLRSADTAVYYCARVGPYSWDDSPQDNYYMDVWGKGTTVIVSSASTKGPSVFPLAPSSKSTSGGTAALGCLVKDYFPEPVTVSWNSGALTSGVHTFPAVLQSSGLYSLSSVVTVPSSSLGTQTYICNVNHKPSNTKVDKRVEPKSCDKTHTCPPCPAPEFERGPSVFLFPPKPKDTLMISRTPEVTCVVVDVSHEDPEVKFNWYVDGVEVHNAKTKPREEQYNSTYRVVSVLTVLHQDWLNGKEYKCKVSNKALPAPIEKTISKAKGQPREPQVYTLPPSREEMTKNQVSLTCLVKGFYPSDIAVEWESNGQPENNYKTTPPVLDSDGSFLLYSKLTVDKSRWQQGNVFSCSVMHEALHNHYTQKSLSLSPG chain 2: EIVLTQSPGTLSLSPGERATFSCRSSHSIRSRRVAWYQHKPGQAPRLVIHGVSNRASGISDRFSGSGSGTDFTLTITRVEPEDFALYYCQVYGASSYTFGQGTKLERKRTVAAPSVFIFPPSDEQLKSGTASVVCLLNNFYPREAKVQWKVDNALQSGNSQESVTEQDSKDSTYSLSSTLTLSKADYEKHKVYACEVTHQGLSSPVTKSFNRGEC chain 3: QVQLVQSGAEVKKPGASVKVSCQASGYRFSNFVIHWVRQAPGQRFEWMGWINPYNGNKEFSAKFQDRVTFTADTSANTAYMELRSLRSADTAVYYCARVGPYSWDDSPQDNYYMDVWGKGTTVIVSSASTKGPSVFPLAPSSKSTSGGTAALGCLVKDYFPEPVTVSWNSGALTSGVHTFPAVLQSSGLYSLSSVVTVPSSSLGTQTYICNVNHKPSNTKVDKRVEPKSCDKTHTCPPCPAPEFEGGPSVFLFPPKPKDTLMISRTPEVTCVVVAVSHEDPEVKFNWYVDGVEVHNAKTKPREEQYNSTYRVVSVLTVLHQDWLNGKEYKCKVSNKALPAPIEKTISKAKGQPREPQVYTLPPSREEMTKNQVSLTCLVKGFYPSDIAVEWESNGQPENNYKTTPPVLDSDGSFFLYSRLTVDKSRWQQGNVFSCSVMHEALHNHYTQKSLSLSPG chain 4: EIVLTQSPGTLSLSPGERATFSCRSSHSIRSRRVAWYQHKPGQAPRLVIHGVSNRASGISDRFSGSGSGTDFTLTITRVEPEDFALYYCQVYGASSYTFGQGTKLERKRTVAAPSVFIFPPSDEQLKSGTASVVCLLNNFYPREAKVQWKVDNALQSGNSQESVTEQDSKDSTYSLSSTLTLSKADYEKHKVYACEVTHQGLSSPVTKSFNRGEC	–	–	–	–	–	–	no binding	–
IgG1-EpCAM-A37-FERL (antibody) chain 1: not shown chain 2: EIELTQSPGTLSLSPGERATLSCRASQTISNNYLAWYQQKRGQAPRLLIYAASSRATGIPDRFSGTGSGTDFTLTISRLEPEDFAVYYCAQGELYPRQFGGGTKLEIKRTVAAPSVFIFPPSDEQLKSGTASVVCLLNNFYPREAKVQWKVDNALQSGNSQESVTEQDSKDSTYSLSSTLTLSKADYEKHKVYACEVTHQGLSSPVTKSFNRGEC	–	no binding	no binding	no binding	230 nM	no binding	–	–
BisG2amm-EpCAM-323-A3-AALT/m4-1BB-3H3-AAKR (EpCAM arm) (antibody, V domains shown) VH: QIQLVQSGPELKKPGETVKISCKASGYTFTNYGMNWVRQASGEGLKWMGWINTYTGEPTYGEDFKGRFAFSLETSASTAYLQINNLKNEDTATYFCARFGNYVDYWGQGTTLTVSS VL: DIVMTQAAFSNPVTLGTSASISCRSSKNLLHSNGITYLYWYLQKPGQSPHLLIYQMSNLASGVPDRFSSSGSGTDFTLRISRVEAEDVGVYYCAQNLEIPRTFGGGTKLEIKR	3.2 nM	–	–	–	–	–	–	–
